Test results from paper PMC4286236.

What was measured:
Assay in all cases: AraTM assay
[1] = target: Danio rerio PlxnA3 TM + JM (amino acids 1241-1314) D1302Y, AraTM construct (EP-PCR mutant); settings: E. coli membranes; four replicates; read off a plot
[2] = target: Danio rerio PlxnA3 TM + JM (amino acids 1241-1314) L1274A, AraTM construct; settings: E. coli membranes; minimum of eleven replicates over three experiments; read off a plot
[3] = target: Danio rerio PlxnA3 TM + JM (amino acids 1241-1314) L1277F, AraTM construct; settings: E. coli membranes; minimum of eleven replicates over three experiments; read off a plot
[4] = target: Danio rerio PlxnA3 TM + JM (amino acids 1241-1314) L1284A, AraTM construct; settings: E. coli membranes; minimum of eleven replicates over three experiments; read off a plot
[5] = target: Danio rerio PlxnA3 TM + JM (amino acids 1241-1314) M1281F, AraTM construct; settings: E. coli membranes; minimum of eleven replicates over three experiments; read off a plot
[6] = target: Danio rerio PlxnA3 TM + JM (amino acids 1241-1314) M1281L, AraTM construct; settings: E. coli membranes; minimum of eleven replicates over three experiments; read off a plot
[7] = target: Danio rerio PlxnA3 TM + JM (amino acids 1241-1314) M1281T, AraTM construct; settings: E. coli membranes; minimum of eleven replicates over three experiments; read off a plot
[8] = target: Danio rerio PlxnA3 TM + JM (amino acids 1241-1314) V1288F, AraTM construct (EP-PCR mutant); settings: E. coli membranes; four replicates; read off a plot

Danio rerio PlxnA3 TM + JM (amino acids 1241-1314), wild type, AraTM construct D1302Y
other: % change in AraTM fluorescence/absorbance from WT (% change from WT) [1]: 85

Danio rerio PlxnA3 TM + JM (amino acids 1241-1314), wild type, AraTM construct L1274A
other: % change in AraTM fluorescence/absorbance from WT (% change from WT) [2]: -1

Danio rerio PlxnA3 TM + JM (amino acids 1241-1314), wild type, AraTM construct L1277F
other: % change in AraTM fluorescence/absorbance from WT (% change from WT) [3]: -2.3

Danio rerio PlxnA3 TM + JM (amino acids 1241-1314), wild type, AraTM construct L1284A
other: % change in AraTM fluorescence/absorbance from WT (% change from WT) [4]: -7.6

Danio rerio PlxnA3 TM + JM (amino acids 1241-1314), wild type, AraTM construct M1281F
other: % change in AraTM fluorescence/absorbance from WT (% change from WT) [5]: -7.2

Danio rerio PlxnA3 TM + JM (amino acids 1241-1314), wild type, AraTM construct M1281L
other: % change in AraTM fluorescence/absorbance from WT (% change from WT) [6]: 23

Danio rerio PlxnA3 TM + JM (amino acids 1241-1314), wild type, AraTM construct M1281T
other: % change in AraTM fluorescence/absorbance from WT (% change from WT) [7]: -12

Danio rerio PlxnA3 TM + JM (amino acids 1241-1314), wild type, AraTM construct V1288F
other: % change in AraTM fluorescence/absorbance from WT (% change from WT) [8]: 25
